Measurements: the supplement of paper PMC9233669
Fewer inactive variants are shown than the library holds.

Assays:
biotinyl-Phe-oxazolone = assay: self-aminoacylation, catalytic enhancement (BFO) (fold over background); higher = more active; k-Seq, kA / k0A0; sequences stand for … in GGGAAUGGAUCCACAUCUACGAAUUC…UUCACUGCAGACUUGACGAAGCUG
Procedure, shortened: (§1)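 Mutagenized RNA pools (0.43 μM; 21-nt variable region) were treated with 2–1250 μM of each biotinyl-aminoacyl-oxazolone. Conditions were 50 μL HEPES/NaCl/KCl/MgCl2/CaCl2 buffer, 5% acetonitrile, pH 6.9–7.0, room temperature, 90 minutes. Catalytic enhancement, the median kA relative to the uncatalyzed rate, was derived from streptavidin capture, qPCR and Illumina sequencing.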

biotinyl-Ile-oxazolone = assay: self-aminoacylation, catalytic enhancement (BIO) (fold over background); higher = more active; k-Seq, kA / k0A0; sequences stand for … in GGGAAUGGAUCCACAUCUACGAAUUC…UUCACUGCAGACUUGACGAAGCUG
Procedure, shortened: as §1

biotinyl-Met-oxazolone = assay: self-aminoacylation, catalytic enhancement (BMO) (fold over background); higher = more active; k-Seq, kA / k0A0; sequences stand for … in GGGAAUGGAUCCACAUCUACGAAUUC…UUCACUGCAGACUUGACGAAGCUG
Procedure, shortened: as §1

biotinyl-Val-oxazolone = assay: self-aminoacylation, catalytic enhancement (BVO) (fold over background); higher = more active; k-Seq, kA / k0A0; sequences stand for … in GGGAAUGGAUCCACAUCUACGAAUUC…UUCACUGCAGACUUGACGAAGCUG
Procedure, shortened: as §1

biotinyl-Leu-oxazolone = assay: self-aminoacylation, catalytic enhancement (BLO) (fold over background); higher = more active; k-Seq, kA / k0A0; sequences stand for … in GGGAAUGGAUCCACAUCUACGAAUUC…UUCACUGCAGACUUGACGAAGCUG
Procedure, shortened: as §1

biotinyl-Trp-oxazolone = assay: self-aminoacylation, catalytic enhancement (BWO) (fold over background); higher = more active; k-Seq, kA / k0A0; sequences stand for … in GGGAAUGGAUCCACAUCUACGAAUUC…UUCACUGCAGACUUGACGAAGCUG
Procedure, shortened: as §1

Sequence | self-aminoacylation (biotinyl-Phe-oxazolone) | self-aminoacylation (biotinyl-Ile-oxazolone) | self-aminoacylation (biotinyl-Met-oxazolone) | self-aminoacylation (biotinyl-Val-oxazolone) | self-aminoacylation (biotinyl-Leu-oxazolone) | self-aminoacylation (biotinyl-Trp-oxazolone)
AUUCACCUAACUCAUCGGGUG [Fam2.2 aminoacylation ribozyme variant] | 22.8 | 2.36 | 4.05 | 2.41 | 4.47 | 3.17
AUUCACCUAAGCCAUCGGGUG [Fam2.2 aminoacylation ribozyme variant] | 26.6 | 2.55 | 3 | 3.24 | 4.62 | 3.01
AUUCACCUAAGGCAUCGGGUG [Fam2.2 aminoacylation ribozyme variant] | 26.5 | 2.69 | 3.3 | 3.31 | 4.9 | 3.67
AUUCACCUAAGUCAACGGGUG [Fam2.2 aminoacylation ribozyme variant] | 28 | 2.58 | 3.57 | 2.43 | 4.67 | 3.21
AUUCACCUAAGUCACCGGGUG [Fam2.2 aminoacylation ribozyme variant] | 53.8 | 4.72 | 7.03 | 4.88 | 8.36 | 5.67
AUUCACCUAAGUCAUAGGGUG [Fam2.2 aminoacylation ribozyme variant] | 5.88 | 1.32 | 1.87 | 1.21 | 1.92 | 1.3
AUUCACCUAAGUCAUCGGAUG [Fam2.2 aminoacylation ribozyme variant] | 0.343 | 0.917 | 0.736 | 0.983 | 0.815 | 0.557
AUUCACCUAAGUCAUCGGCUG [Fam2.2 aminoacylation ribozyme variant] | 5.86 | 1.52 | 1.55 | 1.58 | 1.63 | 0.999
AUUCACCUAAGUCAUCGGGAG [Fam2.2 aminoacylation ribozyme variant] | 0.578 | 1.07 | 1.2 | 1.49 | 1.81 | 1.14
AUUCACCUAAGUCAUCGGGCG [Fam2.2 aminoacylation ribozyme variant] | 9.59 | 2.63 | 2.83 | 2.53 | 4.95 | 2.51
AUUCACCUACGUCAUAGGGUG [Fam2.2 aminoacylation ribozyme variant] | 0.864 | 0.915 | 1.34 | 0.933 | 1.02 | 0.634
AUUCACCUACGUCAUCGCGUG [Fam2.2 aminoacylation ribozyme variant] | 83.5 | 5.7 | 10.3 | 5.93 | 14.1 | 9.63
AUUCACCUACGUCAUCGGGUC [Fam2.2 aminoacylation ribozyme variant] | 4.31 | 1.17 | 1.25 | 1.21 | 1.36 | 0.963
AUUCACCUACGUCAUCGGGUG [Fam2.2 aminoacylation ribozyme variant] | 36.7 | 3.24 | 5.27 | 3.38 | 6.98 | 4.79
AUUCACCUACGUGAUCGGGUG [Fam2.2 aminoacylation ribozyme variant] | 20.2 | 2.19 | 2.81 | 2 | 3.64 | 3.44
AUUCACCUAGAUCAUCGCGUG [Fam2.2 aminoacylation ribozyme variant] | 48.1 | 3.85 | 5.82 | 3.69 | 8.58 | 5.99
AUUCACCUAGAUCAUCGGUUG [Fam2.2 aminoacylation ribozyme variant] | 0.463 | 0.794 | 0.778 | 0.983 | 0.786 | 0.447
AUUCACCUAGAUCAUCUGGUG [Fam2.2 aminoacylation ribozyme variant] | 14.8 | 1.71 | 2.39 | 1.73 | 2.82 | 2.21
AUUCACCUAGAUCAUGGGGUG [Fam2.2 aminoacylation ribozyme variant] | 31.5 | 3.07 | 5.3 | 2.61 | 6.83 | 4.68
AUUCACCUAGAUCCUCGGGUG [Fam2.2 aminoacylation ribozyme variant] | 22.6 | 2.22 | 3.57 | 1.99 | 4.04 | 3.16
AUUCACCUAGAUCGUCGGGUG [Fam2.2 aminoacylation ribozyme variant] | 3.8 | 1.14 | 1.06 | 1.38 | 1.3 | 0.967
AUUCACCUAGCUCAACGGGUG [Fam2.2 aminoacylation ribozyme variant] | 6.75 | 1.37 | 1.88 | 1.36 | 2.28 | 1.95
AUUCACCUAGCUCAUCCGGUG [Fam2.2 aminoacylation ribozyme variant] | 16.5 | 2.45 | 3.18 | 2.51 | 3.7 | 3.68
AUUCACCUAGCUCAUCGAGUG [Fam2.2 aminoacylation ribozyme variant] | 0.417 | 0.7 | 0.652 | 0.791 | 0.548 | 0.394
AUUCACCUAGCUCAUCGGUUG [Fam2.2 aminoacylation ribozyme variant] | 0.258 | 0.978 | 0.921 | 0.845 | 0.861 | 0.533
AUUCACCUAGCUCAUUGGGUG [Fam2.2 aminoacylation ribozyme variant] | 5.14 | 1.44 | 1.89 | 1.69 | 1.62 | 2.07

Sequence | self-aminoacylation (biotinyl-Phe-oxazolone) | self-aminoacylation (biotinyl-Ile-oxazolone) | self-aminoacylation (biotinyl-Met-oxazolone) | self-aminoacylation (biotinyl-Val-oxazolone) | self-aminoacylation (biotinyl-Leu-oxazolone) | self-aminoacylation (biotinyl-Trp-oxazolone)
AUUCACCUAGCUCUUCGGGUG [Fam2.2 aminoacylation ribozyme variant] | 10.9 | 2.08 | 2.25 | 2.42 | 2.62 | 2.74
AUUCACCUAGGAAAUCGGGUG [Fam2.2 aminoacylation ribozyme variant] | 53 | 4.03 | 6.99 | 3.5 | 8.95 | 5.87
AUUCACCUAGGACAUCCGGUG [Fam2.2 aminoacylation ribozyme variant] | 31 | 7.62 | 5.98 | 6.22 | 6 | 4.47
AUUCACCUAGGACAUCGCGUG [Fam2.2 aminoacylation ribozyme variant] | 26.8 | 2.53 | 3.57 | 2.83 | 4.57 | 3.99
AUUCACCUAGGACAUCUGGUG [Fam2.2 aminoacylation ribozyme variant] | 8.71 | 2.02 | 2.13 | 1.72 | 2.13 | 2.13
AUUCACCUAGGACAUUGGGUG [Fam2.2 aminoacylation ribozyme variant] | 25.8 | 2.24 | 3.42 | 2.28 | 4 | 2.79
AUUCACCUAGGACGUCGGGUG [Fam2.2 aminoacylation ribozyme variant] | 9.18 | 1.66 | 1.91 | 1.88 | 1.91 | 1.42
AUUCACCUAGGCCAUCCGGUG [Fam2.2 aminoacylation ribozyme variant] | 32 | 4.25 | 5.26 | 4.6 | 5.83 | 5.92
AUUCACCUAGGCCAUCGCGUG [Fam2.2 aminoacylation ribozyme variant] | 31.6 | 4.69 | 4.45 | 4.15 | 6.31 | 3.85
AUUCACCUAGGCCAUCGGGUA [Fam2.2 aminoacylation ribozyme variant] | 16.4 | 2.42 | 3.31 | 2.21 | 3.81 | 3.52
AUUCACCUAGGCCAUUGGGUG [Fam2.2 aminoacylation ribozyme variant] | 34.9 | 3.11 | 4.09 | 2.85 | 5.31 | 3.71
AUUCACCUAGGCCCUCGGGUG [Fam2.2 aminoacylation ribozyme variant] | 24.2 | 2.81 | 3.26 | 3.1 | 3.88 | 3.75
AUUCACCUAGGCCUUCGGGUG [Fam2.2 aminoacylation ribozyme variant] | 19.9 | 2.49 | 3.67 | 3.43 | 5.19 | 3.83
AUUCACCUAGGCUAUCGGGUG [Fam2.2 aminoacylation ribozyme variant] | 21.8 | 2.43 | 3.76 | 3.06 | 4.84 | 3.79
AUUCACCUAGGGCAUCCGGUG [Fam2.2 aminoacylation ribozyme variant] | 54.4 | 10.5 | 10.7 | 8.74 | 12.6 | 8.38
AUUCACCUAGGGCAUCGGGUA [Fam2.2 aminoacylation ribozyme variant] | 2.02 | 2.89 | 3.25 | 3.46 | 2.34 | 3.3
AUUCACCUAGGGCGUCGGGUG [Fam2.2 aminoacylation ribozyme variant] | 9.76 | 1.73 | 2.21 | 1.84 | 2.92 | 1.83
AUUCACCUAGGUAAACGGGUG [Fam2.2 aminoacylation ribozyme variant] | 22.9 | 1.97 | 3.77 | 2.27 | 4.47 | 3.84
AUUCACCUAGGUAAUAGGGUG [Fam2.2 aminoacylation ribozyme variant] | 22 | 2.7 | 4.95 | 2.43 | 5.63 | 4.25
AUUCACCUAGGUAAUCGGGUA [Fam2.2 aminoacylation ribozyme variant] | 5.56 | 1.39 | 1.55 | 1.47 | 1.33 | 1.8
AUUCACCUAGGUAAUCGGUUG [Fam2.2 aminoacylation ribozyme variant] | 0.536 | 0.71 | 0.735 | 0.687 | 0.91 | 0.967
AUUCACCUAGGUAUUCGGGUG [Fam2.2 aminoacylation ribozyme variant] | 21.8 | 2.81 | 3.34 | 2.59 | 5.02 | 3.35
AUUCACCUAGGUCAACGGGUA [Fam2.2 aminoacylation ribozyme variant] | 0.801 | 1.41 | 1.12 | 1.08 | 1.29 | 1.83
AUUCACCUAGGUCAACGGGUC [Fam2.2 aminoacylation ribozyme variant] | 0.507 | 0.899 | 0.915 | 1.07 | 0.807 | 0.902
AUUCACCUAGGUCAAGGGGUG [Fam2.2 aminoacylation ribozyme variant] | 4.67 | 1.37 | 1.43 | 1.3 | 1.41 | 1.3
